Source: publication PMC2289953 (The Journal of Cell Biology, 1991)

Molecular target: the molecule itself
Assay: SDS-PAGE

B1: radixin (natural protein, UniProt P26043 1-583, looked up)
chain: MPKPINVRVTTMDAELEFAIQPNTTGKQLFDQVVKTVGLREVWFFGLQYVDSKGYSTWLKLNKKVTQQDVKKENPLQFKFRAKFFPEDVSEELIQEITQRLFFLQVKEAILNDEIYCPPETAVLLASYAVQAKYGDYNKEIHKPGYLANDRLLPQRVLEQHKLTKEQWEERIQNWHEEHRGMLREDSMMEYLKIAQDLEMYGVNYFEIKNKKGTELWLGVDALGLNIYEHDDKLTPKIGFPWSEIRNISFNDKKFVIKPIDKKAPDFVFYAPRLRINKRILALCMGNHELYMRRRKPDTIEVQQMKAQAREEKHQKQLERAQLENEKKKREIAEKEKERIEREKEELMERLRQIEEQTVKAQKELEEQTRKALELEQERQRAKEEAERLDRERRAAEEAKSAIAKQAADQMKNQEQLAAELAEFTAKIALLEEAKKKKEEEATEWQHKAFAAQEDLEKTKEELKTVMSAPPPPPPPPVIPPTENEHDEQDENSAEASAELSSEGVMNHRSEEERVTETQKNERVKKQLQALSSELAQARDETKKTQNDVLHAENVKAGRDKYKTLRQIRQGNTKQRIDEFEAM
  stoichiometry N: 2
